According to CN113754773A (SUNSHINE GUOJIAN PHARMACEUTICAL SHANGHAI CO LTD, dated 2021):
Each block holds one binder with its values, some of them ahead of it.

Key:
[1] = biological target: PD-1 on PD1 effector cells (Promega PD-1/PD-L1 Blockade Bioassay) (UniProt Q15116 25-288, limits assumed); assay: cell-based or functional assay
[2] = biological target: PD-L1 on PD-L1 aAPC/CHO-K1 cells (Promega PD-1/PD-L1 Blockade Bioassay) (UniProt Q9NZQ7 19-290, limits assumed); assay: cell-based or functional assay
PD1-ECD-hFc蛋白 [3] = biological target: T1, PD1-ECD-hFc蛋白 (human, UniProt Q15116 25-170); assay: ELISA, PD1-ECD-hFc coated, HRP mouse anti-human Fab
T1 construct: extracellular domain; Made in house in HEK-293E cells; also called PD-1抗原; not shown: hFc at the C-terminus

PD1-ECD-hFc蛋白 [4] = biological target: T1, PD1-ECD-hFc蛋白; assay: bridging ELISA: PD1-ECD-hFc coated, antibody titrated, then PDL1-ECD-His at 1000ng/ml, read with HRP-anti-His (both antigens bound at once)
[5] = biological target: T2, PD-1 on CHO stable cells (PD-1/CHO) (UniProt Q15116 25-288, limits assumed); assay: flow cytometry on CHO cells stably expressing PD-1, goat anti-human IgG-FITC
T2 construct: whole, on cells; also called 细胞表面表达PD-1的CHO稳转细胞; PD-1/CHO细胞

PDL1-ECD-His蛋白 = biological target: T3, PDL1-ECD-His蛋白 (human, UniProt Q9NZQ7 19-238); assay: ELISA, PDL1-ECD-His coated, HRP mouse anti-human Fab
T3 construct: extracellular domain; Made in house in HEK-293E cells; also called PD-L1抗原

PD-L1 on N87-PDL1 cells = biological target: T4, PD-L1 on N87-PDL1 cells (UniProt Q9NZQ7 19-290, limits assumed); assay: flow cytometry on N87-PDL1 cells, goat anti-human IgG-FITC
T4 construct: whole, on cells; also called N87-PDL1细胞
T4 sequence (Q9NZQ7 19-290 limits assumed): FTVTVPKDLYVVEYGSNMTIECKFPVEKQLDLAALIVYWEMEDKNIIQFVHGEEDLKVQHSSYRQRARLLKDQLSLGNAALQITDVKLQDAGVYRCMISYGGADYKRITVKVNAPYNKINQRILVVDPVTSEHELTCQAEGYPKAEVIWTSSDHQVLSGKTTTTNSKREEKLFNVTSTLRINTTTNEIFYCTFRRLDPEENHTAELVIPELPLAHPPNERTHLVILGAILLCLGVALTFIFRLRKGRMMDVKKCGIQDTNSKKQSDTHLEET

Sequence of PD-L1 on PD-L1 aAPC/CHO-K1 cells (Promega PD-1/PD-L1 Blockade Bioassay) (Q9NZQ7 19-290 limits assumed): as above
T1 sequence (Q15116 25-170): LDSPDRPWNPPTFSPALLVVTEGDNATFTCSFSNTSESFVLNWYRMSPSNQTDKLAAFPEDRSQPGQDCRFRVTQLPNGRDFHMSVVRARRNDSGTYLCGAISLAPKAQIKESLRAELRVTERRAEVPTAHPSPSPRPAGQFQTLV
T3 sequence (Q9NZQ7 other isoform, or with tags, fused parts or gaps): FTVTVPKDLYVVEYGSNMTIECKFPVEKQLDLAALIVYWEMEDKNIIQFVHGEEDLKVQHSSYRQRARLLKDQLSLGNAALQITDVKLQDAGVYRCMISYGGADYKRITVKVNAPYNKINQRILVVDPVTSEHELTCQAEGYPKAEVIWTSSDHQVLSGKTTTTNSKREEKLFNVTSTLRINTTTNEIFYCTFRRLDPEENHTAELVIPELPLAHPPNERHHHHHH
T2 sequence (Q15116 25-288 limits assumed): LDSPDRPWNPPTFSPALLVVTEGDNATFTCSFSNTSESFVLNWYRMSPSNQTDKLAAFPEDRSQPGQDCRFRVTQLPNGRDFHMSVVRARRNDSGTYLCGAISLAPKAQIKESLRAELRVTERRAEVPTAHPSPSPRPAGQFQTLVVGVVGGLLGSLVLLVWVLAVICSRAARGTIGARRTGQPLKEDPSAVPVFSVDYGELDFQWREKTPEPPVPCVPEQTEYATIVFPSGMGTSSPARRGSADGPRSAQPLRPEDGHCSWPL
Sequence of PD-1 on PD1 effector cells (Promega PD-1/PD-L1 Blockade Bioassay) (Q15116 25-288 limits assumed): as above

IC50, luminescence (PD-1/PD-L1 Blockade Bioassay) [1]: 0.24 nM | IC50, luminescence (PD-1/PD-L1 Blockade Bioassay) [2]: 0.24 nM | EC50 (PD1-ECD-hFc蛋白 [3]): 0.3 nM | EC50 (PD1-ECD-hFc蛋白 [4]): 0.36 nM | EC50 [5]: 1.43 nM | EC50 (PDL1-ECD-His蛋白): 0.29 nM | EC50 (PD-L1 on N87-PDL1 cells): 0.15 nM
B1: anti-PD1×PDL1 BsAb (bispecific antibody, human IgG1, kappa)
heavy: not shown
light: EIVLTQSPDFLSVTPKEKVTITCRASQSIGTTIHWYQQKPDQSPKLLIKYASQSFSGVPSRFSGSGSGTDFTLTINSVEAEDAATYYCQQSNSWPLTFGAGTKLEIKRTVAAPSVFIFPPSDEQLKSGTASVVCLLNNFYPREAKVQWKVDNALQSGNSQESVTEQDSKDSTYSLSSTLTLSKADYEKHKVYACEVTHQGLSSPVTKSFNRGEC
notes: also called 抗PD1×PDL1双抗; 抗PD1×PDL1双特异性抗体

IC50, luminescence (PD-1/PD-L1 Blockade Bioassay) [2]: 0.42 nM | EC50 (PDL1-ECD-His蛋白): 0.27 nM | EC50 (PD-L1 on N87-PDL1 cells): 0.11 nM
B2: 抗PD-L1单抗 (M8) (antibody, human IgG1, kappa, V domains shown)
VH: QVQLQQSGGGLVKPSQSLSLTCTVSGFSLTSYGVHWVRQPPGKGLEWIGLIWSGGGTDYNPSLKSRLTISRDTSKNQVSFKISSLTAADTAVYYCARQLGLRAMDYWGQGTSVTVSS
VL: EIVLTQSPDFLSVTPKEKVTITCRASQSIGTTIHWYQQKPDQSPKLLIKYASQSFSGVPSRFSGSGSGTDFTLTINSVEAEDAATYYCQQSNSWPLTFGAGTKLEIKR
notes: also called 抗人PD-L1单抗M8; anti-PD-L1 mAb
